# According to IntAct's records for PubMed 20543817:
# B1: Neuroligin-1 (Rattus norvegicus (Rat)), Q62765-2 (parent)
# chain: MALPRCMWPNYVWRAMMACVVHRGSGAPLTLCLLGCLLQTFHVLSQKLDDVDPLVTTNFGKIRGIKKELNNEILGPVIQFLGVPYAAPPTGEHRFQPPEPPSPWSDIRNATQFAPVCPQNIIDGRLPEVMLPVWFTNNLDVVSSYVQDQSEDCLYLNIYVPTEDDIRDSGGPKPVMVYIHGGSYMEGTGNLYDGSVLASYGNVIVITVNYRLGVLGFLSTGDQAAKGNYGLLDLIQALRWTSENIGFFGGDPLRITVFGSGAGGSCVNLLTLSHYSEGLFQRAIAQSGTALSSWAVSFQPAKYARILATKVGCNVSDTVELVECLQKKPYKELVDQDVQPARYHIAFGPVIDGDVIPDDPQILMEQGEFLNYDIMLGVNQGEGLKFVENIVDSDDGVSASDFDFAVSNFVDNLYGYPEGKDVLRETIKFMYTDWADRHNPETRRKTLLALFTDHQWVAPAVATADLHSNFGSPTYFYAFYHHCQTDQVPAWADAAHGDEVPYVLGIPMIGPTELFPCNFSKNDVMLSAVVMTYWTNFAKTGDPNQPVPQDTKFIHTKPNRFEEVAWTRYSQKDQLYLHIGLKPRVKEHYRANKVNLWLELVPHLHNLNDISQYTSTTTKVPSTDITLRPTRKNSTPVTSAFPTAKQDDPKQQPSPFSVDQRDYSTELSVTIAVGASLLFLNILAFAALYYKKDKRRHDVHRRCSPQRTTTNDLTHAPEEEIMSLQMKHTDLDHECESIHPHEVVLRTACPPDYTLAMRRSPDDVPLMTPNTITMIPNTIPGIQPLHTFNTFTGGQNNTLPHPHPHPHSHSTTRV
# B2: Neuroligin-2 (Rattus norvegicus (Rat)), Q62888-2 (parent)
# chain: MWLLALCLVGLAGAQRGGGGPGGGAPGGPGLGLGSLGEERFPVVNTAYGRVRGVRRELNNEILGPVVQFLGVPYATPPLGARRFQPPEAPASWPGVRNATTLPPACPQNLHGALPAIMLPVWFTDNLEAAATYVQNQSEDCLYLNLYVPTEDDIRDSGKKPVMLFLHGGSYMEGTGNMFDGSVLAAYGNVIVATLNYRLGVLGFLSTGDQAAKGNYGLLDQIQALRWLSENIAHFGGDPERITIFGSGAGASCVNLLILSHHSEGLFQKAIAQSGTAISSWSVNYQPLKYTRLLAAKVGCDREDSTEAVECLRRKSSRELVDQDVQPARYHIAFGPVVDGDVVPDDPEILMQQGEFLNYDMLIGVNQGEGLKFVEDSAESEDGVSASAFDFTVSNFVDNLYGYPEGKDVLRETIKFMYTDWADRDNGEMRRKTLLALFTDHQWVAPAVATAKLHADYQSPVYFYTFYHHCQAEGRPEWADAAHGDELPYVFGVPMVGATDLFPCNFSKNDVMLSAVVMTYWTNFAKTGDPNQPVPQDTKFIHTKPNRFEEVVWSKFNSKEKQYLHIGLKPRVRDNYRANKVAFWLELVPHLHNLHTELFTTTTRLPPYATRWPPRTPGPGTSGTRRPPPPATLPPESDIDLGPRAYDRFPGDSRDYSTELSVTVAVGASLLFLNILAFAALYYKRDRRQELRCRRLSPPGGSGSGVPGGGPLLPTAGRELPPEEELVSLQLKRGGGVGADPAEALRPACPPDYTLALRRAPDDVPLLAPGALTLLPSGLGPPPPPPPPSLHPFGPFPPPPPTATSHNNTLPHPHSTTRV
# Variants of: B1
# Conditions: with Nrxn1, Q63373-3
row,effect of a mutation on the interaction,Variant
1,disrupting interaction,G471A

# Variants of: B2
# Conditions: with Nrxn1, Q63373-3
# Target sequence in this assay (Q63373 other isoform, or with tags, fused parts or gaps): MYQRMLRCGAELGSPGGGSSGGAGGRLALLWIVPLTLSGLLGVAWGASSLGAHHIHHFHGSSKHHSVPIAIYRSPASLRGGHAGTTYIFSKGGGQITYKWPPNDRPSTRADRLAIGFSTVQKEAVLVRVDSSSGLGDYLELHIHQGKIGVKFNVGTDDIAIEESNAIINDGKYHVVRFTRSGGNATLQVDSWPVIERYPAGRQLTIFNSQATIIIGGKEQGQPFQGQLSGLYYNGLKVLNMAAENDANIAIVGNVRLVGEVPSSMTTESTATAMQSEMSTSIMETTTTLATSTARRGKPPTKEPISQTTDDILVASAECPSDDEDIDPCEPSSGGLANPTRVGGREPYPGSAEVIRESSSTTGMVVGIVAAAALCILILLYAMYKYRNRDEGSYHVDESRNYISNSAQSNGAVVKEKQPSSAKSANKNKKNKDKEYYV
row,effect of a mutation on the interaction,Variant
1,increasing interaction,Q458G
